Laboratory results reported in article PMC10720262 (2023).

The binders below were run against PfCSP full length (Plasmodium falciparum (isolate NF54), UniProt P19597) (assay: ELISA AUC).
Sequence of PfCSP full length (P19597 20-375): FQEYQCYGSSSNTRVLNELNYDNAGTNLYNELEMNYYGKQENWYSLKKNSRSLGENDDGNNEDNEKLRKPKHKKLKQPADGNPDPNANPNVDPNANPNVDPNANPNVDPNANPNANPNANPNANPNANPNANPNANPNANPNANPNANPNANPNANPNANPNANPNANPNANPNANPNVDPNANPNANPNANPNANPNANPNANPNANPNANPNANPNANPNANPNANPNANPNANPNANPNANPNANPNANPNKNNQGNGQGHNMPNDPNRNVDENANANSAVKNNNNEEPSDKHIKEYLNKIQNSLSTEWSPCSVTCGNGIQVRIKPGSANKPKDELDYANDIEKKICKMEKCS

| Binder | binding score |
| --- | --- |
| CL-509177 (antibody, V domains shown, peptides N-terminally acetylated and C-terminally amidated) VH: QVQLVESGGGVVQPGRSLRLSCAASGFSFSSYGMHWVRQTPGKGLEWVAIIWYDGSNKFYADSVKGRFIISRDNSKNTLYLQMNSLRAEDTAVYYCARDGGYSTSAGDFDYWGQGTLVTVSS VL: EIVLTQSPGTLSLSPGERATLSCRASQSVSSSYLAWYQQKPGQAPRLLIYGASSRATGIPDRFSGRGSGTDFTLTISRLEPEDFAVYYCQQYVSSFTFGPGTKVDIN | 1.17 |
| CL-510700 (antibody, V domains shown, peptides N-terminally acetylated and C-terminally amidated) VH: QVQLVESGGGVVQPGRSLRLSCAASGFTFSDFGMHWVRQTPGKGLEWVAIIWYDGSNKFYADSVKGRFTISRDNSKNTLFLQMNSLRAEDTAVYYCARSGVYYGSGSHFDYWGQGTLVTVSS VL: DIQMTQSPSTLSASVGDRVTITCRASQSISSWLAWYQLKPGKAPKLLIYKASNLETGVPLRFSGSGSGTEFTLTISSLQPDDFATYYCQQYNSYLTFGQGTKVEIK | 1.9 |
| CL-514146 (antibody, V domains shown, peptides N-terminally acetylated and C-terminally amidated) VH: QVQLVESGGGVVQPGRSLRLSCAVSGFTFSNSGMHWVRQAPGKGLEWVAIIWYDGNNKFYADSVKGRFTISRDNSKNTLYLQMNSLRAEDTSIYYCARAYPSGNYGDKYGMDVWGQGTTVTVSS VL: DIQMTQSPSTLSASVGDRVTITCRASQSISSWLAWFQQKPGNAPKLLIYKASSLESGVPSRFSGSGSGTEFTLTINSLQPDDFATYYCQQYNSFWTFGQGTKVEIK | 2.39 |
| CL-510092 (antibody, V domains shown, peptides N-terminally acetylated and C-terminally amidated) VH: QVQLVESGGGVVQPGTSLRLSCAASGFTFSNFGMYWVRQAPGKGLEWVALIWYDGSNKFYEDSVKGRFTISRDNSKNTLYLQMNSLRAEDTAVYYCAKDGGYSGPGKYGFFRHWGQGSLVTVSS VL: DIQLTQSPSTLSASVGDRVTITCRASQSISNWLAWYQQKPGKAPKLLIYKASSLESGVPSRFSGNGSGTEFTLTISSLQPDDFATYYCHQYNFYWTFGQGTKVEIK | 2.38 |
| CL-512264 (antibody, V domains shown, peptides N-terminally acetylated and C-terminally amidated) VH: QVQLVESGGGVVQPGRSLRLSCVTSGFTFSNFGMHWVRQAPGKGLEWVAIIWYDGSNKFYADSLKGRFTISRDNSKNTLFLQMNSLRAEDTAVYYCARAHTVTTANDKYGTDVWGQGTTVTVSS VL: DIQMTQSPSTLSASVGDRVTITCRASQSISSWLAWYQHKPGKAPKLLIYKASSLESGVPSRFSGSGSGTEFTLTISSLQPDDFATYFCQQYNSYWTFGQGTKVEIK | 2.54 |
| CL-515284 (antibody, V domains shown, peptides N-terminally acetylated and C-terminally amidated) VH: QVQLVGSGGGVVQSGRSLRLSCAASGFTFSNFGMHWVRQTPDKGLEWLAIIWYDGSHKFYVDSVKGRFTISRDNSMNTLFLQMNSLRAEDTGVYYCVRSWNYADSKYGMDVWGQGTTVTVSS VL: DIQMTQSPSTLSASVGDRVTITCRASQSISSWLAWYQQKPGKAPNLLIYKASSLESGVPSRFSGSGSGTEFTLTISSLQPDDFATYYCQQYYNYWTFGQGTKVEIK | 2.19 |
| CL-509494 (antibody, V domains shown, peptides N-terminally acetylated and C-terminally amidated) VH: QVQLVESGGGVVQPGRSLRLSCAASGFTFSNFGMHWVRQSPGRGLEWVAIIWYDGSHKFYADSVKGRFTISRDNSKNTLYLQMNSLRAEDTAVYYCAKSEQRTNDHYYKYGMDVWGQGTTVTVST VL: DIQMTQSPSTLSASVGDRVTITCRASQSISSWLAWYQQKPGKAPTLLIYKASSLESGVPSRFSGSGSGTEFTLTISSLQPDDFATYYCQQYTNYWTFGQGTKVEIK | 1.93 |
| CL-445827 (antibody, V domains shown, peptides N-terminally acetylated and C-terminally amidated) VH: QVQLVASGGGVVQPGRSLRLSCVASGFTFSFFGMHWVRQTPGRGLEWVAIIWYDGGHKFYADSVKGRFTISRDNSKDTLYLQMNSLRAEDTAVYYCARAEDNMARGNIDYSKYGMDVWGQGTTVTVSS VL: DIQMTQSPSTLSVSIGDRVTITCRASQSISTWLAWYQQKPGKAPKLLIYKASNLESGVPSRFSGSGSGTDFTLTISGLQPDDFATYYCQQYFSYWTFGQGTKVEIK | 2.5 |
| CL-513780 (antibody, V domains shown, peptides N-terminally acetylated and C-terminally amidated) VH: QVQLVESGGGVVQPGRSLRLSCTASGFIFSNYGMYWVRQAPGKGLDWVALIWYDGSNKYYVGSVKGRFTISRDNSKNTLYLQMNSLRAEDTAVYYCARAGKYSGSGSYLDSWGQGTLVTVSS VL: DIQMTPSPSILSASVGDRVTITCRASQNISSWLAWYQQKPGKAPKLLIYKASSLESGVPSRFSGSGSGTEFTLTISSLQPDDFATYFCQQYYSYWTFGQGTKVEIK | 2.48 |
| CL-531383 (antibody, V domains shown, peptides N-terminally acetylated and C-terminally amidated) VH: QVQLVESGGGVVQPGRSLRLSCAASGFTFSSFGMHWVRQTPVKGLEWVALIWYDGSHKFYADSVRGRFIISRDNSKNTLFLQMNSLRAEDTAIYYCAKVINYGSGNYYNNYKYTMDVWGQGTTVTVSS VL: DIQMTQSPSTLSASVGDRVTITCRASQSISSWLAWYQQKPGKAPKVLIYKASSLESGVPSRFSGSGSGTEFTLTISSLQPDDFATYYCQQYNTYWTFGQGTKVEIK | 2.64 |
| CL-510484 (antibody, V domains shown, peptides N-terminally acetylated and C-terminally amidated) VH: QVQLVESGGGVVQPGRSLRLSCAASGFTFSNYGMNWVRQAPGKGLEWMAVIWYDGSNKYYGDSVKGRFTISRDNSKNTLYLQMISLRAEDTAVYFCAKSGEFYGSGSHFDYWGQGTLVTVSS VL: not shown | 2.03 |
| CL-441734 (antibody, V domains shown, peptides N-terminally acetylated and C-terminally amidated) VH: QVQLVESGGGVVQPGRSLRLSCAASGFTFSSHGMHWVRQAPVKGLEWVAVIWYDGSNKYYADSVKGRFTISRDNSKNTLYLQMNSLRAEDTAVYYCARVEYSRSSGDYYYYGLDVWGQGTTVTVSS VL: EIVMTQSPATLSVSPGERATLSCRASQSVSSNLAWYQQKPGQAPRLLIYGASTRATGIPARFSGSGSGTEFTLTISSLQSEDFAVYYCQQYDNWWTFGQGTKVEIK | 2.3 |
| CL-511073 (antibody, V domains shown, peptides N-terminally acetylated and C-terminally amidated) VH: QVQLVESGGGVVQPGRSLRLSCAASGFSFSSHGMHWVRQAPGKGLEWVSIIWYDGSNKFYADSVKGRFTISRDNSKNTLYLQMNSLRAEDTAVYYCARDGYDVLTGHYNWFDPWGQGTLVTVSS VL: EIVMTQSPATLSVSPGERATLSCRASQSVSSKLAWYQQKPGQAPRLLIYGASTRATGIPARFSGSGSGTDFTLTISSLQSEDFAVYYCQQYNNWWTFGHGTKVEIK | 2.15 |
| CL-447376 (antibody, V domains shown, peptides N-terminally acetylated and C-terminally amidated) VH: QVQLVESGGGVVQPGRSLRLSCAASGFNFNNYGMHWVRQAPVMGLEWVAIIWYDGSNKFYADSVKGRFTISRDNSQNTLFLQMNSLRAEDTGIYYCARSGGEMGNFDYWGQGTLVTVSS VL: DIVMTQSPLSLPVTLGQPASISCRSSQSLVYSNGDTYLDWFQLRPGQSPRRLIYKVSHRDSGVPDRFSGSGSGTEFTLRISRVEAEDVGIYYCMQGTHYWTFGQGTEVEIK | 2.5 |
| CL-447737 (antibody, V domains shown, peptides N-terminally acetylated and C-terminally amidated) VH: QVQLVESGGGVVQPGRSLRLSCAASGFTFSSYGMHWVRQAPGKGLEWVAIIWFDGSNIFYEDSVKGRFTISRDNSKNTLYLQMNSLRAEDTAVYYCAKVWNYDSDYYSMDVWGQGTTVTVSS VL: not shown | 2.4 |
| CL-437934 (antibody, V domains shown, peptides N-terminally acetylated and C-terminally amidated) VH: QVQLVASGGAVVQPGRSLRLSCAASGFTFSNSGMHWVRQAPGQGLEWVAIIWYDGGNKYYADSVKGRFTISRDNSKNTLYLQMNSLRAEDTAVYYCVRAYYEILTTYNKDCCYGMDVWGQGTTVTVSS VL: not shown | 2.4 |
| CL-510632 (antibody, V domains shown, peptides N-terminally acetylated and C-terminally amidated) VH: QVQLVESGGGVVQPGRSLRLSCAASGFTFSNYGMHWVRQAPGKGLEWVAVIWYDGSNKFYADSVKGRFTISRDNSKNTLYLQTNSLRAEDTAVYYCARVYYYDSGNYLDYWGQGTLVAVSS VL: DIQMTQSPSSVSASVGDRVTITCRASQGINNCLAWYQQKPGKAPKLLIYAASSLQSGVPSRFSGSGSGTDFTLTISNLQPEDFATYCCQQANSFPWTFGQGTKVEIK | 1.9 |
| CL-437762 (antibody, V domains shown, peptides N-terminally acetylated and C-terminally amidated) VH: QVQLVESGGGVVQPGRSLRLSCAASGFTFSNYGMYWVRQAPGKGLEWVAVIWYDGSNKYYADSVKGRFTISRDNSKNTLYLQMNSLRAEDTAFYYCARPQYSGSGSYFDYWGQGTLVTVSS VL: not shown | 2.5 |
| CL-449724 (antibody, V domains shown, peptides N-terminally acetylated and C-terminally amidated) VH: QVHLVASGGGVVQPGRSLRLSCEVTGFTFSSYGMHWVRQDPGRGLEWVAIIWYDGSNKFYADSVKGRFTISRDNSKNTLYLQMNSLRAEDTAVYYCARSYGILTGYQTKYGMDVWGQGTTVTVSS VL: not shown | 2.5 |
| CL-464277 (antibody, V domains shown, peptides N-terminally acetylated and C-terminally amidated) VH: QVQLVASGGGVVQPGRSLRLSCAVSGFTFRNYGMHWVRQDPGRGLEWVAIIWYDGSYKFYADSVKGRFTISRDNSKNTLYLQMNSLRAEDTAVYYCARSYGSLTGDQTKYGMDVWGQGTTVSVSS VL: not shown | 2.5 |
| CL-509025 (antibody, V domains shown, peptides N-terminally acetylated and C-terminally amidated) VH: QVQLVESGGGVVQPGRSLRLSCVASGFTFSDYGMHWVRQAPGKGLEWVAVIWYDGTKEFFADSVKGRFTISRDNSKDTLYLQMNSLRAEDTGIYYCATYKWNSHLDYWGQGTLVTVSS VL: EIVLTQSPATLSLSPGERATLSCRASQTISSYLAWYQQKPGQAPRLLIYDASNRATGIPARFSGSGSGTDFTLTISSLEPEDFTVYYCQQRSNWPLTFGGGTKVGIK | 1.64 |
| CL-440324 (antibody, V domains shown, peptides N-terminally acetylated and C-terminally amidated) VH: QVQLVESGGGVVQPGRSLRLSCAASGFTFRNHGLHWVRQAPGKGLEWVAIIWFDGSNKFYADSVKGRFTISRDNSKNTLYLQMNSLRAEDTAIYYCARVSSHDNGDYGDFDYWGQGTLVTVSS VL: DIQMTQSPSTLSASVGDRVTITCRASQNISNWLAWYQQKPGKAPKLLIYKASSLESGVPSRFSGSGSGTEFTLTISGLQPDDFATYYCQQYKTYWTFGQGTQVEIK | 2.6 |
| CL-440422 (antibody, V domains shown, peptides N-terminally acetylated and C-terminally amidated) VH: QVQLVESGGGVVQPGRSLRLSCAASGFTFSNFGMHWVRQTPDRGLEWVAIIWFDGSNTFYTDSVKGRFTISRDNYMNTLYLQMNSLRAEDTAVYYCARSFYSDSAGSLFDYWGQGTLVTVSS VL: DIQMTQSPSTLSASVGDRVTITCRASQNINNWVAWYQQKPGKAPKLLIYKASDLETGVPSRFSGSGSGTEFTLTISGLQPDDFATFYCLQNNHYWTFGQGTKVEIK | 2.5 |
| CL-444424 (antibody, V domains shown, peptides N-terminally acetylated and C-terminally amidated) VH: QVQLVESGGGVVQPGRSLRLSCTASGFTFSNYGMHWIRQAPGKGLEWVAIIWFDGSSQYYADSVKGRFTISRDNSKNTLYLQMNSLRAEDTAVYYCVRALYDSGSLFDFWGLGTLVTVSS VL: DIQMTQSPSTLSASVGDRVTITCRASQNISSLLAWYQQKPGKAPKLLIYKASSLESGVPSRFSGNGSGTEFTLTVSSLQPDDFATYSCLQYNNYWTFGQGTKVEIK | 2.3 |
